The values below come from US20120230990A1 (MERCK SERONO, published 2012).

T1: human IL-22RA on cells (HepG2 hepatoma cells, normal human keratinocytes, BaF3 cells transfected with human … (human, UniProt Q8N6P7 16-574))
T1 sequence: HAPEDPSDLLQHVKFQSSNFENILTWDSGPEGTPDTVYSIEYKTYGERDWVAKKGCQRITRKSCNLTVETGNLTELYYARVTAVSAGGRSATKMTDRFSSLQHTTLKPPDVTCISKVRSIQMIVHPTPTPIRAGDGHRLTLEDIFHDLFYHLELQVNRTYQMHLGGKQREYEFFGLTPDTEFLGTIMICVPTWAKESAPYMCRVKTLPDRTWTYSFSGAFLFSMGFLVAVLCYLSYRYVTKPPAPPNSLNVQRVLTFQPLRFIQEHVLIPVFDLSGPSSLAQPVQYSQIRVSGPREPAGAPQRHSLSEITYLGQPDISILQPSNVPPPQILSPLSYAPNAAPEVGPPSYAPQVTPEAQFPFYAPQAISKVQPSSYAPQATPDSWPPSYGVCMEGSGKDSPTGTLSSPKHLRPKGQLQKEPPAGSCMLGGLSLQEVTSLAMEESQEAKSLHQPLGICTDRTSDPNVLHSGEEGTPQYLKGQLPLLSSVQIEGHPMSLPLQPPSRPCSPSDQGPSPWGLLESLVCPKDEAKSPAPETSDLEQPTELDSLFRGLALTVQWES

T2: murine IL-22RA on cells (HEPA1-6 hepatoma cells, BaF3 cells transfected with murine IL-22RA and IL-10RB) (murine, UniProt Q80XZ4 16-581)
T2 sequence (looked up): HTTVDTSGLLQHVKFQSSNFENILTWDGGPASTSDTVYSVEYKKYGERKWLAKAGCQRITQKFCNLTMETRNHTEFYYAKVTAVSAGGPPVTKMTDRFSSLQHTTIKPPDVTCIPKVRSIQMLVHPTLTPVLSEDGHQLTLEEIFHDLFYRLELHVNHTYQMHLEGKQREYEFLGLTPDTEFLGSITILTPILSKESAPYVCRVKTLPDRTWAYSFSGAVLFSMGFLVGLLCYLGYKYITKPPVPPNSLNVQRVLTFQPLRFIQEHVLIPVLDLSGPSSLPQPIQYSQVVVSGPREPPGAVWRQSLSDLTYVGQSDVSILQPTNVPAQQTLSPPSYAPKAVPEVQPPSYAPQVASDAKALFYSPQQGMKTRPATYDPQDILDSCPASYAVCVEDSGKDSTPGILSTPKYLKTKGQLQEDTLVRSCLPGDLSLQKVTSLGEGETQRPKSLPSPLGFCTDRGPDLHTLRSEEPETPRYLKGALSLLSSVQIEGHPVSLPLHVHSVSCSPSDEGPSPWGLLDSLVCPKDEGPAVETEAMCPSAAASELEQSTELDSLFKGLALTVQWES

B1: humanized 280.46.3.4 antibody comprising 280.VH3-66-1 paired with 280.VK4-1-S, human IgG1/kappa (antibody, V domains shown)
VH: EVQLVESGGGLVQPGGSLRLSCAASGYSLTADYMNWVRQAPGKGLEWIGEINPSTGTTTYNQKFEARATLTVDQSKNTAYLQMNSLRAEDTAVYYCARFDAYFDYWGQGTLVTVSS
VL: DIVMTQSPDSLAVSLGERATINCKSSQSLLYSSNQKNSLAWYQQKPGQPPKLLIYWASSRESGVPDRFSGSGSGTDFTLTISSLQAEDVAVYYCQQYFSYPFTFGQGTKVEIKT
B2: humanized 280.46.3.4 antibody comprising 280.VH3-66-4 paired with 280.VK4-1-T, human IgG1/kappa (antibody, V domains shown)
VH: B1 VH with E65K, A66G, T71S
VL: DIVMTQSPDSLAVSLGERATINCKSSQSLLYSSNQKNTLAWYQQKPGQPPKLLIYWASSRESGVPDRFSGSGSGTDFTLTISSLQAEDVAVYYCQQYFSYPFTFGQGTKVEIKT
B3: humanized 280.46.3.4 antibody comprising 280.VH3-66-18 paired with 280.VK4-1-T, human IgG1/kappa (antibody, V domains shown)
VH: B1 VH with D32E, E65K, A66G, T71S
VL: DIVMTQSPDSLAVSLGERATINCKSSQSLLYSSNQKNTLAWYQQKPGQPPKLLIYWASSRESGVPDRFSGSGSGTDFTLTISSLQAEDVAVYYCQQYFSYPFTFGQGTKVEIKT
B4: Fab of D96E mutant: 280.VH3-66-4 with Asp to Glu at position 96, paired with 280.VK4-1-T (Fab, name in Kabat numbering, V domains shown)
VH: B1 VH with E65K, A66G, T71S, D100E
VL: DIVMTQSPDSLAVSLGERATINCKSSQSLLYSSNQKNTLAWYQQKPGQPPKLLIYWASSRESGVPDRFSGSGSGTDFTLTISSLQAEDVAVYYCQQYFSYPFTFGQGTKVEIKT
notes: NiNTA-purified Fab, which implies a His tag that is not described
B5: Fab of D32E mutant: 280.VH3-66-18 paired with 280.VK4-1-T (Fab, V domains shown)
VH: B1 VH with D32E, E65K, A66G, T71S
VL: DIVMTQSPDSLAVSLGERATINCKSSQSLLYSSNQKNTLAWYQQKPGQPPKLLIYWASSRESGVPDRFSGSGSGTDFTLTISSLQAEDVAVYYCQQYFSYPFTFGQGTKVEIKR
notes: NiNTA-purified Fab, which implies a His tag that is not described; also called version 18
B6: mouse 280.46.3.4 (mouse anti-human IL-22RA monoclonal antibody from hybridoma 280.46.3.4, ATCC PTA-6284) (antibody, V domains shown)
VH: EVQLQQSGPELVRPGTSVKISCKASGYSLTADYMNWVKQSPEESLEWIGEINPSTGTTTYNQKFEAKATLTVDQSSNTAYLQLTSLTSEDSAVYYCARFDAYFDYWGQGTTVTVSS
VL: DIVMTQSPSSLAVSVGEKVTMSCKSSQSLLYSSNQKNCLAWYQQKPGQSPKLLIYWASSRESGVPDRFTGSGSGTDFTLTISSVKTEDLAVYYCQQYFSYPFTFGSGTKLEIKR
B7: murine IL-22RA (recombinant, form not stated) (receptor, UniProt Q80XZ4 16-230, looked up)
chain: HTTVDTSGLLQHVKFQSSNFENILTWDGGPASTSDTVYSVEYKKYGERKWLAKAGCQRITQKFCNLTMETRNHTEFYYAKVTAVSAGGPPVTKMTDRFSSLQHTTIKPPDVTCIPKVRSIQMLVHPTLTPVLSEDGHQLTLEEIFHDLFYRLELHVNHTYQMHLEGKQREYEFLGLTPDTEFLGSITILTPILSKESAPYVCRVKTLPDRTWAYS
notes: also called mIL-22RA; mouse IL-22 receptor alpha
B8: human IL-22RA (recombinant, form not stated) (receptor)
chain: HAPEDPSDLLQHVKFQSSNFENILTWDSGPEGTPDTVYSIEYKTYGERDWVAKKGCQRITRKSCNLTVETGNLTELYYARVTAVSAGGRSATKMTDRFSSLQHTTLKPPDVTCISKVRSIQMIVHPTPTPIRAGDGHRLTLEDIFHDLFYHLELQVNRTYQMHLGGKQREYEFFGLTPDTEFLGTIMICVPTWAKESAPYMCRVKTLPDRTWT
notes: a soluble ECD is likely; also called hIL-22RA; human interleukin 22 receptor alpha

Test [1] concerns the target T1, human IL-22RA on cells (HepG2 hepatoma …). The test is described as follows: cell-based or functional assay.
The target in test [2] is T2, murine IL-22RA on cells (HEPA1-6 …). In words: cell-based or functional assay.
Test [3] deals with B8. In words: Biacore, NiNTA-purified Fab.
The target in test [4] is T3, 280.346.TSY (humanized anti-human IL-22RA antibody comprising 280.VH3-66-46 paired with 280.VK4-1-TSY, human …).
T3 construct: Produced in CHO cells; also called 280.VH3-66-46/VK4-1-TSY; 280.VH3-66.46 paired with 280.IGKV4-1-TSY
The test is described as follows: competitive ELISA: soluble competitor against coated human IL-22RA-ECD for biotinylated 280-346-TSY; soluble murine IL-22RA as competitor. As for the experimental part:
(§1) FIG. 23 reports the results of a competitive ELISA done to measure the specificity of 280.346.TSY to human IL-22RA. Microtiter plates were coated with human IL-22RA-ECD (i.e. IL-22RA-Extra Cellular Domain). Biotinylated 280-346-TSY antibody was added to the plate in the presence of competitors: human interleukin 22 receptor alpha (hIL-22RA), human IL-22 binding protein (hIL-22BP), murine IL-22 receptor alpha (mIL-22RA), human IL-10 receptor alpha (hIL-10R) and human IL-20 receptor alpha (hIL-20R).
(§2) Specificity and binding affinity of 280.346.TSY was determined using a competitive ELISA. Microtiter plates were coated with human IL-22RA-ECD (i.e. IL-22RA-Extra Cellular Domain). Biotinylated 280-346-TSY antibody was added to the plate in the presence of competitors: human interleukin 22 receptor alpha (hIL-22RA), human IL-22 binding protein (hIL-22BP), mouse IL-22 receptor alpha (mIL-22RA), human IL-10 receptor alpha (hIL-10R) and human IL-20 receptor alpha (hIL-20R).

Test [5] has as its target T3, 280.346.TSY (humanized anti-human …). In words: competitive ELISA: soluble competitor against coated human IL-22RA-ECD for biotinylated 280-346-TSY; soluble human IL-22RA as competitor. How it is done: as §1, §2

Residue numbers refer to the chain shown, from its start. In names and notes the source's numbering stands. Several values for one entry are separate records, joined by “and”; a condition that tells them apart may be missing. Equal values may be shown once.

T3 sequence (VL, as listed by the source): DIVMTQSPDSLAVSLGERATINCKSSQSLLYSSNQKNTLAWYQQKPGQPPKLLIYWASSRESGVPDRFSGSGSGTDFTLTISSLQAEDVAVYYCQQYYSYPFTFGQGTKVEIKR

Regarding B1, in test [1], the “IC50, STAT3 phosphorylation assay in human HepG2 hepatoma cells stimulated with recombinant human IL-22” value worked out at 0.258 nM; the “IC50, proliferation assay in BaF3 cells transfected with human IL-22RA and IL-10RB, cultured with recombinant human IL-22” value was 0.34 nM; the “fold potency against the mouse parental antibody 280.46.3.4, STAT3 phosphorylation assay in HepG2 cells” value (“fold potency … in HepG2 cells” for short) turned out to be 1.4 fold; the “fold potency against the mouse parental antibody 280.46.3.4, proliferation of human IL-22 receptor transfected BaF3 cells” value is 1.7 fold. Moreover, in test [2], the “IC50, proliferation assay in BaF3 cells transfected with murine IL-22RA and IL-10RB, cultured with recombinant murine IL-22” value was 0.693 nM; the “fold potency against the mouse parental antibody 280.46.3.4, proliferation of murine IL-22 receptor transfected BaF3 cells” value came out at 2.1 fold.

Regarding B2, in test [1], the “IC50, STAT3 phosphorylation assay in human HepG2 hepatoma cells stimulated with recombinant human IL-22” value came to 0.183 nM; the “IC50, proliferation of human IL-22 receptor (IL-22RA and IL-10RB) transfected BaF3 cells” value was determined as 0.334 nM; the “fold potency … in HepG2 cells” value came out at 1.8 fold; the “fold potency against the mouse parental antibody 280.46.3.4, proliferation of human IL-22 receptor transfected BaF3 cells” value was found to be 1.75 fold. Further, in test [2], the “IC50, proliferation of murine IL-22 receptor (IL-22RA and IL-10RB) transfected BaF3 cells” value stood at 0.687 nM; the “fold potency against the mouse parental antibody 280.46.3.4, proliferation of murine IL-22 receptor transfected BaF3 cells” value came to 2.1 fold.

Turning to B3, in test [1], the “IC50, STAT3 phosphorylation assay in human HepG2 hepatoma cells” value amounted to 0.133 nM and the “fold potency … in HepG2 cells” value was around 3 fold.

B4: in test [3], the “fold reduction of affinity against parental unmutated D32 (280.VH3-66-4)” value was around 500 fold.

As for B5, in test [3], the “fold decrease of the off rate against parental unmutated D32 (280.VH3-66-4)” value was around 5 fold and the “fold increase of the on rate against parental unmutated D32 (280.VH3-66-4)” value is around 2 fold.

As for B6, in test [1], the “IC50, STAT3 phosphorylation assay in human HepG2 hepatoma cells stimulated with recombinant human IL-22” value is 0.333 nM and 0.37 nM and 0.266 nM; the “IC50, STAT3 phosphorylation assay in normal human keratinocytes stimulated with recombinant human IL-22” value was 0.542 nM; the “IC50, proliferation assay in BaF3 cells transfected with human IL-22RA and IL-10RB, cultured with recombinant human IL-22” value was 0.545 nM and 0.587 nM. Also, the “IC50, proliferation assay in BaF3 cells transfected with murine IL-22RA and IL-10RB, cultured with recombinant murine IL-22” value in test [2] was 0.849 nM and 1.47 nM.

For the molecule B7, the IC50 in test [4] amounted to 0.149 nM.

Molecule B8 had an IC50 in test [5] of 0.0182 nM.
